{"source": "patent US20090291088A1", "about": "“THERAPEUTIC COMBINATIONS OF ANTI-IGF-1R ANTIBODIES AND OTHER COMPOUNDS” (Biogen Idec MA Inc., priority 2008, published 2009)", "molecules": {"B1": {"name": "M14-C03_Fab (antibody, V domains shown)", "VH": "EVQLLESGGGLVQPGGSLRLSCAASGFTFSKYMMSWVRQAPGKGLEWVSYISPSGGLTWYADSVKGRFTISRDNSKNTLYLQMNSLRAEDTAVYYCARDGARGYGMDVWGQGTTVTVSS", "VL": "DIQMTQSPATLSLSPGERATLSCRASQSVSSYLAWYQQKPGQAPRLLIYDASNRATGIPARFSGSGSGTDFTLTISSLEPEDFAVYYCQQRSNWPPEVTFGPGTKVDIK"}}, "target": "T1, recombinant human IGF-1R-10His (Homo sapiens, UniProt P08069)", "T1 construct": "denoted hIGF-1R(1-902)-His10, was purchased from R&D systems (Cat. No. 305-GR-050); purchased R&D Systems 305-GR-050", "experiment": "SPR, antibodies and Fabs on IGF-1R-His captured via PENTA-His antibody", "format": "binding", "conditions": "Fab fragment; 25° C.", "description": "Method: The binding activity of M13-C06, M14-C03, and […] to soluble IGF-1R was measured using surface plasmon resonance. Biotinylated PENTA-His Antibody (Qiagen, Inc.) was immobilized onto a Streptavidin coated Sensor Chip. Soluble/Dimeric IGF-1R-His ectodomain (R&D systems, Inc.) was captured on the surface via the PENTA-His antibody. Secondary injections of M13-C06, M14-C03, or M14-G11 Fabs (0.5 nM-100nM) were performed. The surfaces were regenerated with three short injections of acetate, pH 4.0.\nM13-C06, M14-C03, and M14-G11 Fab antibodies were prepared by digestion with immobilized papain (Pierce Cat. No. 20341 (Pierce Biotechnology, Inc., Rockford, Ill.)). The papain resin was washed with 20 mM sodium phosphate pH 7.0; 10 mM EDTA; 20 mM Cysteine. Antibodies were mixed with the papain resin in 500 mM EDTA, 100 mM Cysteine pH 7.0 and digested for three hours in a 37° C. water bath followed by mixing on an inverting shaker overnight at room temperature. Completion of each digestion was determined by analytical size exclusion chromatography (SEC). The resin was removed from the digested protein with a sintered glass funnel filter and washed with 20 mM acetate pH 5.0. The flowthrough was collected and diluted 10-fold with 20 mM acetate pH 5.0. Fab fragments were purified by S-SEPHAROSE™ cation exchange chromatography using a linear salt gradient. […]", "data": [{"molecule": "B1", "values": [{"measurement": "ka", "value": 190000, "unit": "M⁻¹ s⁻¹"}, {"measurement": "kd", "value": 0.00094, "unit": "s⁻¹"}]}]}
